Patent US20160297892A1 (Novo Nordisk, published 2016)

T1: EGF1-4 domains of human Protein S with C-terminal HPC4 tag (human, UniProt P07225 114-286, partial hydroxylation of Asn or Asp in the EGF domains (detected by MS))
T1 construct: also called hEGF1-4; human Protein S EGF1-4
T1 sequence: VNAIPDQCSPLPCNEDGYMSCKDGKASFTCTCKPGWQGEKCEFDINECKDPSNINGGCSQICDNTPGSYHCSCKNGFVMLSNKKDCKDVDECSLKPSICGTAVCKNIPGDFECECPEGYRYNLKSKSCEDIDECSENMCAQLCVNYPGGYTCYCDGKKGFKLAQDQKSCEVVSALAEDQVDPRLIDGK

T2: human Protein S (plasma derived) (human, UniProt P07225 42-676)
T2 construct: Bought plasma-derived human Protein S (Haematologic Technologies or Enzyme Research Laboratories); also called Plasma PS; free Protein S
T2 sequence: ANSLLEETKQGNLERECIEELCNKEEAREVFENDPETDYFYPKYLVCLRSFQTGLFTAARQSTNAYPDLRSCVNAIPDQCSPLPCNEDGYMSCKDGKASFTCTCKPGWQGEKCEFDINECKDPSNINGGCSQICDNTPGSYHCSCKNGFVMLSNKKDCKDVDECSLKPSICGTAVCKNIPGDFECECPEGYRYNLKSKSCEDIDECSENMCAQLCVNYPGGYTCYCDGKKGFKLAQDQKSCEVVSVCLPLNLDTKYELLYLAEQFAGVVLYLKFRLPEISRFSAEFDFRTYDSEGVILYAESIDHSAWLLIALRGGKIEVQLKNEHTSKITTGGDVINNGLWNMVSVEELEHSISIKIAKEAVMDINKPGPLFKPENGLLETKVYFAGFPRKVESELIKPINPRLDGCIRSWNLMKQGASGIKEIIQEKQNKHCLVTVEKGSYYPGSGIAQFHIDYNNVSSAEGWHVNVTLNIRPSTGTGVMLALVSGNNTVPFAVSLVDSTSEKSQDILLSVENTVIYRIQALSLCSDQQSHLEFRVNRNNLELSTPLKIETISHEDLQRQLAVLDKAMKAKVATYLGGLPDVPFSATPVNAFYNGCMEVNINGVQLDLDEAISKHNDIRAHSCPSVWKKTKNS

T3: Gla-domain deleted recombinant human Protein S (human, UniProt P07225 114-676)
T3 construct: also called hPS-dGla; desGla human Protein S
T3 sequence: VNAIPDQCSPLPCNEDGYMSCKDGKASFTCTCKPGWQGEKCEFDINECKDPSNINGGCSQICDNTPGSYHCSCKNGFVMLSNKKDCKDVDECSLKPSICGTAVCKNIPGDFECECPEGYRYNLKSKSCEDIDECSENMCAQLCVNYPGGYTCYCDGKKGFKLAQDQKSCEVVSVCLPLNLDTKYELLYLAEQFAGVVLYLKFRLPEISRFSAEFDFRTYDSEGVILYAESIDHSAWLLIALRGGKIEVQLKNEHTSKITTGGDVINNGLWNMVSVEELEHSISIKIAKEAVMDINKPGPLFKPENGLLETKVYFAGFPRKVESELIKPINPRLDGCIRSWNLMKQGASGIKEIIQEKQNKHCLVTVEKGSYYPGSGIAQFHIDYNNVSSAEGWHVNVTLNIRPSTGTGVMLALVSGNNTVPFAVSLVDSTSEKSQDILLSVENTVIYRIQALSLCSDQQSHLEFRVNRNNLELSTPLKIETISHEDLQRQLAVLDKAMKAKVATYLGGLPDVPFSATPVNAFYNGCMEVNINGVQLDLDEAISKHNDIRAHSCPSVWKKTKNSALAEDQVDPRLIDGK

T4: EGF domain 3 and 4 of recombinant human Protein S (human, UniProt P07225 201-286, limits assumed)
T4 construct: domain: EGF domain 3 and 4; also called hEGF3-4
T4 sequence (looked up): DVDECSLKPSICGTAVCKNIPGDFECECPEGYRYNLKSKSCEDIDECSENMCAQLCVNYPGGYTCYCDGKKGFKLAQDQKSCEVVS

T5: EGF domain 1 and 2 of recombinant human Protein S (human, UniProt P07225 114-200, limits assumed)
T5 construct: domain: EGF domain 1 and 2; also called hEGF1-2
T5 sequence (looked up): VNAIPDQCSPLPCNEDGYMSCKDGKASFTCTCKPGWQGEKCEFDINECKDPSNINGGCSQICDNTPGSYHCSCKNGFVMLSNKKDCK


Experiments:
Assay in all cases: ELISA, calcium-free TBS;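 also: binding of mouse antibodies detected by ELISA with an HRP-conjugated goat anti-mouse IgG secondary and TMB substrate development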
[1] = target: T1, EGF1-4 domains of human Protein S with …
Protocol: (§1) After incubation and washing a HRP-labelled goat-anti-mouse IgG secondary antibody (Jackson) was added and the ELISA was developed after incubation and wash by addition of 3,3′,5,5′-Tetramethylbenzidine.

[2] = target: T2, human Protein S (plasma derived)
Protocol: as §1

[3] = target: T3, Gla-domain deleted recombinant human …
Protocol: as §1

[4] = target: T4, EGF domain 3 and 4 of recombinant human …
Protocol: as §1

[5] = target: T5, EGF domain 1 and 2 of recombinant human …
Protocol: as §1

Row | Binder | binding result [1] | binding result [2] | binding result [3] | binding result [4] | binding result [5]
1 | M-hProtS-6F120A1 monoclonal antibody (antibody, mouse IgG1, V domains shown, Purified from hybridoma supernatant; mouse IgG1, kappa) VH: EIQLQQSGPELVKPGASVKVSCKASGYSFTDYNMYWVKQSHGKSLEWIGYIDPYNGGTSYNQKFKGKATLTVDKSSSTAFMHLNSLTSEDSAVYYCARERDYWYFDVRGAGTTVTVSS VL: DIVLTQSPASLAVSLGQRATISCRASKSVSASGYSYMHWYQQKPGQPPKLLIYLASNLESGVPARFSGSGSGTDFTLNIHPVEEEDAATYYCQHSRELPLTFGAGTKLELKR | binds | binds | binds | no binding | no binding
2 | M-hProtS-6F153A2 monoclonal antibody (antibody, mouse IgG1, V domains shown, Tested as antibody purified from hybridoma supernatant; mouse IgG1, kappa) VH: QIQLVQSGPELKKPGETVKISCKASGYTFSDYSMHWVKQTPGEGLKWMGWMNTGTGEPTYADDFKGRFAFSLETSATTAHLQINNLKNEDTATYFCARRLYYGTGLAYWGQGTLVTVSA VL: DIVMTQSHKFMSTSVGDRVSITCKASQDVSTGVAWYQQKPGQSPKLLIFSASSRYSGVPDRFTGSGSGTDFTFTISSVQAEDLAVYYCQQHYSSPRTFGGGTKLEIKR | binds | binds | binds | no binding | no binding
3 | M-hProtS-3F38A2 monoclonal antibody (antibody, mouse IgG1, V domains shown, Purified from hybridoma supernatant; mouse IgG1, kappa) VH: EVLLQQSGPELVKPGASVKIPCKASGYTFTDYNMDWVKQSHGKSLEWIGDINPNNGDTFYNQKFKGKATLTVDKSSSTAYMELRSLTSEDTAVYYCARSEIFTTAPDYGMGYWGQGTSVTVSS VL: ENVLTQSPAIMSASPGEKVTMTCRASSSVSSSYLHWYQQRSGASPKLWIYGTSNLASGVPARFSGSGSGTSYSLTISSVEAEDAATYYCQQYSGYPRTFGGGTKLEIKR | binds | binds | binds | no binding | no binding
4 | M-hProtS-3F62A5 monoclonal antibody (antibody, mouse IgG1, V domains shown, Purified from hybridoma supernatant; mouse IgG1, kappa) VH: EVLLQQSGPELVKPGASVKITCKASGYTFTDYNMDWVKQSHGKSLEWIGDIDPNNGGTIYNQEFTGKATLTVDTSSSTAYMELRSLTSEDTAVYYCVRSEIFTTAPDYGVDYWGQGTSVTVSS VL: ENVLTQSPAIMSASPGEKVTMTCRASSSVSSSYLHWYRQKSGASPKLWIYSTSNLASGVPARFSGSGSGTSYSLTISRVEAEDAATYYCQQYSGYPRTFGGGTKVEIKR | binds | binds | binds | no binding | no binding
5 | M-hProtS-6F151A2 monoclonal antibody (antibody, mouse IgG1, V domains shown, Purified from hybridoma supernatant; mouse IgG1, kappa) VH: EVQLQQSGAELVRSGASVKLSCTASGFNIKDNYIHWVKQRPEQGLEWIGWIDPENGDTEYAPKFQGKATMTADTSSNTAYLQLSSLTSEDTAVYYCSAYGAAYWGQGTLVTVSA VL: not shown | binds | binds | binds | no binding | 
6 | M-hProtS-6F128A2 monoclonal antibody (antibody, mouse IgG1, V domains shown, Tested as antibody purified from hybridoma supernatant; mouse IgG1, kappa) VL: SIVMTQTPKFLLVSAGDRVTITCKASQSVSNDVAWYQQKPGQSPKLLIYYASNRYTGVPDRFTGSGYGTDFTFTISTVQAEDLAVYFCQQDYSSPYTFGGGTKLEIKR V domain: QVQLQQPGAELVRPGASVKLSCKASGYTFTSYWINWVKQRPEQGLEWIGRIDPYDSETHYNQKFKDKAILTVDKSSSTAYMQLSSLTSEDSAVYYCARWGGSGYAMDYWGQGTSATVSS | binds | binds | binds | no binding | 
7 | M-hProtS-6F206A1 monoclonal antibody (antibody, mouse IgG1, V domains shown, Purified from hybridoma supernatant; mouse IgG1, kappa) VH: QVQLQQSGAEMVRPGSSVKISCKASGYAFSSHWMNWVKQRPGQGLEWIGQIYPGDGDTNYNGKFRGKAIVTADTSSSTAYLQLSSLTSEDTAVFFCAPGYHGTSYWFAYWGQGTLVTVSA VL: DIQMSQSPSSLSASLGDTVTITCHASQNINIWLSWYQQKPGNILTLLIYKASNLYTGVPSRFSGSGSGTDFTLTISSLQPEDIATYYCQQGQSFPLTFGTGTRLELKR | binds | binds | binds | no binding | 
8 | M-hProtS-6F265A1 monoclonal antibody (antibody, mouse IgG1, V domains shown, Tested as antibody purified from hybridoma supernatant; mouse IgG1, kappa) VH: QVQLKESGPGLVAPSQSLSITCTVSGFSLTSYGVHWVRQPPGKGLGWLGVIWAGGRTDYNSALMSRLSISKDNSKSQVFLKMNSLQTDDTAIYYCARDYGNYNYAMDYWGQGISVTVSS VL: ETTVTQSPASLSMAIGEKVTIRCITSTDIDDDVNWYQQKPGEPPKLLISEGNILRPGVPSRFSSSGYGTDFVFSIENMLSEDVGDYYCLQSDTLPTFGGGTKLEIKR | binds |  | binds | no binding | 

The remaining lines, values ahead:

Row | binding result [1] | binding result [2] | binding result [3] | binding result [4] | binding result [5] | Binder
9 | binds | binds | binds | no binding |  | M-hProtS-2F382A1 monoclonal antibody (antibody, mouse IgG1, V domains shown, Purified from hybridoma supernatant; mouse IgG1, kappa) VH: EVKLEESGGGLVQPGGSMKLSCAASGFTFSDAWMGWVRQSPEKGLEWVAEIRGKANNHATYYSESVKGRFTISRDDSKSSVYLQMNSLRAEDTGIFYCCLITAFLFDYWGQGTTLTVSS VL: QIVLTQSPAIMSASPGEKVTMTCSGRSSENYMYWYQQKPGSPPRLWIYDTSNLVSGVPARFSGSRSGTSYSLTISSMEAEDAATYYCQQFNGYPYTFGGGTKLEIRR
10 | binds | binds | binds | no binding |  | M-hProtS-2F188A1 monoclonal antibody (antibody, mouse IgG1, V domains shown, Purified from hybridoma supernatant; mouse IgG1, kappa) VH: QVQLQQPGAELVRPGTSVKLSCKASGYTVTSYWMNWIKQRPEQGLEWIGRIDPNDSETLYNQKFKDKVILTVDKSSSTVYIQLSSLTSEDSAVYYCARWAGSGYAMDYWGQGTSVTVSS VL: QIVLTQSPALLSASPGEKVTMTCSASSSVSYMYWYQQKPGSSPKPWIYVTSNLASGVPARFSGSGSGTSYSLTISSMEAEDAATYYCHQWSSDPYTFGGGTKLEIRR
11 |  |  |  | no binding |  | M-hProtS-6F216A3 (mAb 0914) monoclonal antibody (antibody, V domains shown, Mouse IgG1, kappa) VH: QVQLQQPGAELVRPGASVKLSCKASGYTFTSYWINWVKQRPEQGLEWIGRIDPYDSETHYNQKFKDKAILTVDKSSSTAYMQLSSLTSEDSAVYYCARWGGSGYAMDYWGQGTSVTVSS VL: QIVLSQSPAILSASPGEKVTMTCRASSSVSYMYWYQQKPGSSPKPWIYATSNLASGVPARFSGSGSGTSYSLTISRVEAEDAATYYCQQWSSIPPTFGGGTKLEIKR
12 | binds | binds | binds | no binding |  | M-hProtS-2F380A1 monoclonal antibody (antibody, mouse IgG1, V domains shown, Purified from hybridoma supernatant; mouse IgG1, kappa) VH: EVKLEESGGGLVQPGGSMKLSCAASGFTFSDAWMDWVRQSPEKGLEWVAEVRSKADNHATYYAESVKGRFTISRDDSKSAVYLQMNSLRPEDTGIYYCTLTTAFLFDSWGQGTTLTVSS VL: QIALTQSPAIMSASPGEKVTMTCSVNSSVSYMHWYQQKPGSSPRLWIYDTSNLVSGVPGRFSGSGSGTSYSLTLSSMEAEDAATYYCQQYSGYLYTFGGGTKLEIKR
